This note sets out measurements from PMC3970758, “A conserved MCM single-stranded DNA binding element is essential for replication initiation”.

Broadly, the stoichiometry N is the number of molecules, sites or subunits per partner or assembly.

Series [1] deals with Pyrococcus furiosus MCM N-terminal domain (PfMCM 1-256) (Pyrococcus furiosus) (UniProt Q8U3I4). The series can be described thus: crystal structure; PfMCMN with 30-mer poly-dT ssDNA; hanging drop, 18°C, 50 mM MES pH 6.0, 10 mM Mg(OAc)2, 28.5% PEG 3350; 3.2 Å; two hexamers in the asymmetric unit.
The target is the same in series [2]. The experiment in a line: crystal structure; PfMCMN without DNA; sitting drop, 18°C, 0.2 M sodium malonate pH 7.0, 20% PEG 3350; 2.65 Å; one hexamer in the asymmetric unit.
The target of series [3] is T1, PfMCMN WT (Pyrococcus furiosus, UniProt Q8U3I4 1-256).
T1 sequence: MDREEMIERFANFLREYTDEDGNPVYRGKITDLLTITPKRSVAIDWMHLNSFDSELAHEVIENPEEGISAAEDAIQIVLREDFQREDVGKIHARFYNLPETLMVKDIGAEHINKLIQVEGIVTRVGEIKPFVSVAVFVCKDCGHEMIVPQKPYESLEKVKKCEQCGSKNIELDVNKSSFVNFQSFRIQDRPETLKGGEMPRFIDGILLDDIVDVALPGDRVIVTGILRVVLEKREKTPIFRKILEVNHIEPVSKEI
The experiment in a line: EMSA; 5 mM Mg2+; EMSA: 20 mM HEPES pH 7.6, 200 mM NaCl, 5 mM MgCl2, 5 mM bME, 25 C, 30 min, 160 nM DNA; 4-20% TBE PAGE. Conditions: protein: recombinant, tags: His6-SUMO removed by Ulp1, in-frame BamHI site may leave extra N-terminal residues. For orientation: In EMSA bound probe runs differently from free probe, usually more slowly.

The target in series [4] is T1, PfMCMN WT. The series can be described thus: crystal structure (3.2 A); 10 mM Mg(OAc)2 in well solution; Zn-binding subdomain; EMSA: 20 mM HEPES pH 7.6, 200 mM NaCl, 5 mM MgCl2, 5 mM bME, 25 C, 30 min, 160 nM DNA; 4-20% TBE PAGE. To be noted: protein: recombinant; tags: His6-SUMO removed by Ulp1; in-frame BamHI site may leave extra N-terminal residues.

Consider “Pyrococcus furiosus MCM N-terminal domain (PfMCM 1-256) (from UniProt Q8U3I4 1-256) (domain or fragment)”, for which the stoichiometry N in series [1] and in series [2] was 6 each time. For the molecule TTTTTTTTTTTTTTTTTTTTTTTTTTTTTTTTTTTTTTTT (ssDNA) [T40 ssDNA], in the series with PfMCMN WT [3] (label: 5'-fluorescein), the “apparent K (half saturation)” value is 6.8 µM.

B1: 26-mer dsDNA (dsDNA)
DNA 1: ATGGCAGATCTCAATTGGATATCGGC
DNA 2: GCCGATATCCAATTGAGATCTGCCAT
B1: the “apparent K (half saturation)” value with PfMCMN WT [3] (label: 5'-fluorescein on strand 1, blunt) was 7 µM. Consider TTTTTTTTTTTTTTTTTTTTTTTTTTTTTT (ssDNA) [poly-dT 30-mer], for which the binding result with PfMCMN WT [4] was “binds”.
